Target: T1, Methylococcus capsulatus (Bath) soluble methane monooxygenase hydroxylase (sMMOH), alpha subunit (Methylococcus capsulatus (Bath), UniProt P22869 1-527)
T1 sequence (looked up): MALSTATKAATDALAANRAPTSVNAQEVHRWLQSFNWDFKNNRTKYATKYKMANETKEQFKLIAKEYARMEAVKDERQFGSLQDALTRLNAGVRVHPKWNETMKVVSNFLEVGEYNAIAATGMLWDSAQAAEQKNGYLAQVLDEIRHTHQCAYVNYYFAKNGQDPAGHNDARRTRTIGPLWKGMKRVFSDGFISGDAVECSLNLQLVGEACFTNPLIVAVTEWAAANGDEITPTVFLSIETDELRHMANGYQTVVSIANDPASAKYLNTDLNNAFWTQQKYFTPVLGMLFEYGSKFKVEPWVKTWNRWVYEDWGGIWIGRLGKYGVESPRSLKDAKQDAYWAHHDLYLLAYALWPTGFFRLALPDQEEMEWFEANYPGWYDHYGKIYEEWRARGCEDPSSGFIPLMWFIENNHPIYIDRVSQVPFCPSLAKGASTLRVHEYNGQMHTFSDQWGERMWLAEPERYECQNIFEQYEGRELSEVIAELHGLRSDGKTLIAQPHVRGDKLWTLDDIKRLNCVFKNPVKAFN
Experiment: cryo-EM structure

B1: Methylococcus capsulatus (Bath) soluble methane monooxygenase hydroxylase (sMMOH), beta subunit (natural protein, UniProt P18798 1-389, looked up)
chain: MSMLGERRRGLTDPEMAAVILKALPEAPLDGNNKMGYFVTPRWKRLTEYEALTVYAQPNADWIAGGLDWGDWTQKFHGGRPSWGNETTELRTVDWFKHRDPLRRWHAPYVKDKAEEWRYTDRFLQGYSADGQIRAMNPTWRDEFINRYWGAFLFNEYGLFNAHSQGAREALSDVTRVSLAFWGFDKIDIAQMIQLERGFLAKIVPGFDESTAVPKAEWTNGEVYKSARLAVEGLWQEVFDWNESAFSVHAVYDALFGQFVRREFFQRLAPRFGDNLTPFFINQAQTYFQIAKQGVQDLYYNCLGDDPEFSDYNRTVMRNWTGKWLEPTIAALRDFMGLFAKLPAGTTDKEEITASLYRVVDDWIEDYASRIDFKADRDQIVKAVLAGLK
  binding result: binds
